We go through two molecules from patent publication US7125658B2, “Small protein that interacts with a ribonucleotide reductase subunit and uses thereof” (The Trustees of Columbia University in the City of New York, priority 1998, dated 2006).

For experiment [1], the target named is T1, Recombinant mouse ribonucleotide reductase R2 protein (mouse, UniProt P11157 1-390).
T1 construct: also called mouse R2 protein
T1 sequence (looked up): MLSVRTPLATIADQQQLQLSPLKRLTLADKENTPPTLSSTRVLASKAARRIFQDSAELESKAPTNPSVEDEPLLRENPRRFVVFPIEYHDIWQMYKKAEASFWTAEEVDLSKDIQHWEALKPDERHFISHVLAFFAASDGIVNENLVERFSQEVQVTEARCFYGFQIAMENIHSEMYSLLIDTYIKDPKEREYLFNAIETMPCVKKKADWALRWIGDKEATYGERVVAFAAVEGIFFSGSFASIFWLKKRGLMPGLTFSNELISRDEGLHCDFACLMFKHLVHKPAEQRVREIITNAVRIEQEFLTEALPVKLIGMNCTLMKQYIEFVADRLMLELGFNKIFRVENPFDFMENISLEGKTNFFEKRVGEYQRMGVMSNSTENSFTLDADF
In words: BIAcore, immobilized Sml1p. A general note: Surface plasmon resonance follows binding to a sensor surface in real time, without labels.

For experiment [2], the target named is T2, yeast Rnr1p (Saccharomyces cerevisiae, UniProt P21524).
T2 construct: made in house; host or cells: E. coli BL21 (DE3), pET3a
T2 sequence (P21524 1-888): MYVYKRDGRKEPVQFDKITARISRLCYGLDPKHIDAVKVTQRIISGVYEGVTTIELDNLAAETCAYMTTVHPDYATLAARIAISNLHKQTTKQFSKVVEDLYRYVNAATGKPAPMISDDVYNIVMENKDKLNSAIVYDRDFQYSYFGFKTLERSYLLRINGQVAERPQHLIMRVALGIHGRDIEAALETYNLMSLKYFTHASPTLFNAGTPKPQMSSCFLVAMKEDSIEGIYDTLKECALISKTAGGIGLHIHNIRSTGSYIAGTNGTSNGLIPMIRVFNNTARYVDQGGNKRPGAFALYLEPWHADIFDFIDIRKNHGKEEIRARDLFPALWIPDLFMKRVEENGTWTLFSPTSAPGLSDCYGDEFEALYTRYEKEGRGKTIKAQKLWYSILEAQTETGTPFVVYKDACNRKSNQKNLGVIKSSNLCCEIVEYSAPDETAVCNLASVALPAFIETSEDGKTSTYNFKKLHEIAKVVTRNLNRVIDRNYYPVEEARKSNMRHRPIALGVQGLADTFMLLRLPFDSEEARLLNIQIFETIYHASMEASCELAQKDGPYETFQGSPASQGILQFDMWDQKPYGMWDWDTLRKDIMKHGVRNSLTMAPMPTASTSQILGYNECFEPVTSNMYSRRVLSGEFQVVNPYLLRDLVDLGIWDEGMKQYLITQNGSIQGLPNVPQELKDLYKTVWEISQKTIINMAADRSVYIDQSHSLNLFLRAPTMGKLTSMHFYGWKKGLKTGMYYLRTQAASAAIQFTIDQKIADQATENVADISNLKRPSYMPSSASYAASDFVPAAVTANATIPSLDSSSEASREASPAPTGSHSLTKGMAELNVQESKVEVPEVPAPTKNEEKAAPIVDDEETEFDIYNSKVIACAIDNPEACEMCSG
In words: BIAcore biosensor analysis, immobilized Sml1p and yeast Rnr1p. In kind it is binding. As to the method: BIAcore biosensor analysis. The interaction between Sml1p and either yeast Rnr1p or mouse R1 protein was studied by biosensor analysis using the BIAcore method (Biacore AB). The Sml1 protein was prepared in 10 mM sodium acetate, pH 5.2, at a concentration of 0.44 mg/ml; it was then immobilized on the dextran layer of the sensor chip as described previously for the mouse R2 protein (17). The ligand proteins were equilibrated with running buffer (10 mM Hepes-KOH, pH 7.4, 200 mM potassium acetate, 1 mM EDTA, 5 mM magnesium acetate and 0.05% Surfactant P20 (BIAcore). The interactions were studied at a constant temperature of 22° C. and a constant flow of 5 μl/min. Kinetics for the interaction of Sml1p with yeast Rnr1p was determined by allowing the immobilized Sml1p to interact with increasing concentrations of Rnr1p (18). The resonance unit (RU) is proportional to the mass, and 1 RU corresponds to a surface concentration of 1 pg of protein/mm^2 of the 100 nm thick dextran layer (19).
Kinetic studies of the interaction between the Rnr1 and Sml1 proteins using a biosensor technique. To obtain a quantitative description of the Rnr1p and Sml1p interaction, we immobilized the Sml1 protein to the dextran layer of a sensor chip, and then injected a series of solutions containing increasing concentrations of Rnr1p to the same sensor chip. The immobilization of Sml1p at a concentration of 0.44 mg/ml gave an increase of 91 resonance units (RU), which correspond to 91 pg/mm^2. With a surface of 0.8 mm 2, 91 RU corresponds to a total of 72.8 pg of bound Sml1p, which can be compared with the total injected amount of 15.4 μg. This low degree of attachment (only 0.0005%) makes it unlikely that the protein is attached to multiple binding sites.
In control experiments, where the same series of Rnr1p solutions passed a sensor chip without immobilized Sml1p, a “bulk effect” gave a response of only about 60 RU. The same background value of about 60 RU was observed when bovine serum albumin or Rnr2p/Rnr4p heterodimer was injected at a concentration of 0.1 mg/ml (data not shown). In FIG. 1B, the response at equilibrium is plotted against the concentration of injected Rnr1p. […] These values correspond to 691 pg/mm^2 or a total of 553 pg or 5.5 fmol Rnr1p monomer bound to about 6.2 fmol immobilized Sml1p, i.e. nearly one Rnr1p monomer bound per molecule of immobilized Sml1p. […] Calculating the equilibrium dissociation constant from these rate constants gave a K0 of about 0.25 μM, which is close to the directly determined K0.

The mark [3] stands for this setting: BIAevaluation software, lower curves of FIG. 12A.

One may read the Kd as the equilibrium constant for the complex coming apart.

B1: Recombinant yeast Sml1 protein (other)
chain: MQNSQDYFYAQNRCQQQQAPSTLRTVTMAEFRRVPLPPMAEVPMLSTQNSMGSSASASASSLEMWEKDLEERLNSIDHDMNNNKFGSGELKSMFNQGKVEEMDF
notes: Immobilized on the BIAcore chip in the biosensor experiments; also called YML058W product
Regarding B1, the binding result in experiment [1] is reported as “no binding”.

B2: Sml1p: 104 amino acid yeast protein encoded by YML058w (SML1) that binds Rnr1 and inhibits ribonucleotide reductase; recombinant, expressed in E. coli (protein)
chain: MQNSQDYFYAQNRCQQQQAPSTLRTVTMAEFRRVPLPPMAEVPMLSTQNSMGSSASASASSLEMWEKDLEERLNSIDHDMNNNKFGSGELKSMFNQGKVEEMDF
For the molecule B2, in experiment [2] (setting [3]), the association rate constant result is “about 153000 M^1s^−1” and the dissociation rate constant worked out at 0.04 s⁻¹. The maximal binding in experiment [2] (Rnr1p bound to immobilized Sml1p (91 RU)) came out at 691 RU. In experiment [2] (immobilized Sml1p, mobile phase Rnr1p, 22° C., response at equilibrium fitted to one site binding model, read-out: equilibrium dissociation constant (KD)), the Kd was 400 nM.
